The results in this text go back to patent US20240034813A1 (Janssen / Centocor, published 2024).

Test [1] concerns the target T1, recombinant cMet/HGFR with c-terminal His-tag, Cy5-labeled (UniProt P08581 25-932, limits assumed, Cy5 label (reacted with Cy5 Mono NHS Ester; sites not stated)).
T1 construct: Commercial protein; also called Cy5-c-MET; Cy5-labeled c-MET antigen; not shown: C-terminal His-tag
The experiment in a line: competitive TR-FRET (Eu-amivantamab/Cy5-c-MET), EC50 ratio vs Reference Material; Ex. 12 drug product with rHuPH20, 0 months, 40 C table. The source says:
(§1) In this procedure, varying concentrations of unlabeled bispecific EGFR-cMet antibody sample compete with donor fluorophore (Europium (Eu) chelate) labeled bispecific EGFR-cMet antibody for binding to an acceptor fluorophore (Cy5)-labeled c-MET antigen. Excitation of the donor fluorophore results in a transfer of energy to the bound acceptor fluorophore (FRET process). The resultant FRET is detected by emission of light at 665 nm using a microplate reader capable of measuring time-resolved fluorescence. Sample dose response curves are compared to the Reference Material (RM).
(§2) c-MET Binding Materials and Methods. Certified commercial cMet, a recombinant cMet/HGFR with c-terminal His-tag is reacted with certified commercial Cy5 Mono NHS Ester to produce Cy5-labeled c-MET. Validated bispecific EGFR-cMet antibody is reacted with certified commercial Europium (Eu) chelate to produce Eu labeled bispecific EGFR-cMet antibody. […] Fluorescence is then measured by spectrophotometry at 665 nm, plotted against antibody concentration and analyzed by a four-parameter logistic model. The antibody concentration required to obtain half of the maximum fluorescence response (EC50) is determined for RM, assay control and samples. The potencies of assay control and samples are calculated based on the ratio of the sample (or control) and RM EC50 values and reported as a percentage activity relative to the RM.
For orientation: TR-FRET usually uses a lanthanide donor and a delayed reading to cut background.

The target of test [2] is T2, recombinant human EGFR/ErbB1/HER1 with C-terminal His tag, Cy5-labeled (human, UniProt P00533 25-645, Cy5 label (reacted with Cy5 Mono NHS Ester; sites not stated)).
T2 construct: Commercial protein; also called Cy5-EGFR; Cy5-labeled EGFR antigen; not shown: C-terminal His tag
The experiment in a line: competitive TR-FRET (Eu-amivantamab/Cy5-EGFR), EC50 ratio vs Reference Material; Ex. 12 drug product with rHuPH20, 9 months at 5 C.
Text: (§3) In this procedure, varying concentrations of unlabeled bispecific EGFR-cMet antibody sample compete with donor fluorophore (Europium (Eu) chelate) labeled bispecific EGFR-cMet antibody for binding to an acceptor fluorophore (Cy5)-labeled EGFR antigen. Excitation of the donor fluorophore results in a transfer of energy to the bound acceptor fluorophore (FRET process). The resultant FRET is detected by emission of light at 665 nm using a microplate reader capable of measuring time-resolved fluorescence. Sample dose response curves are compared to the RM.
as §2, with “EGFR” for “c-MET”, “EGFR,” for “cMet,”, “human EGFR/ErbB1/HER1” for “cMet/HGFR”, “C-terminal His tag” for “c-terminal His-tag”, “EGFR.” for “c-MET.”, “Eu-labeled” for “Eu labeled”

Test [3] deals with T1, recombinant cMet/HGFR with c-terminal …. The test is described as follows: competitive TR-FRET (Eu-amivantamab/Cy5-c-MET), EC50 ratio vs Reference Material; Ex. 2 Formulation 2 (50 mM histidine), T0, 40 C table.
Text: as §1, §2

Test [4] concerns the target T2, recombinant human EGFR/ErbB1/HER1 with …. The experiment in a line: competitive TR-FRET (Eu-amivantamab/Cy5-EGFR), EC50 ratio vs Reference Material; Ex. 2 Formulation 3 (acetate), 3 months at 5 C.
Text: as §3
as §2, with “EGFR” for “c-MET”, “EGFR,” for “cMet,”, “human EGFR/ErbB1/HER1” for “cMet/HGFR”, “C-terminal His tag” for “c-terminal His-tag”, “EGFR.” for “c-MET.”, “Eu-labeled” for “Eu labeled”

The target in test [5] is T1, recombinant cMet/HGFR with c-terminal …. The experiment in a line: competitive TR-FRET (Eu-amivantamab/Cy5-c-MET), EC50 ratio vs Reference Material; Ex. 2 Formulation 1 (10 mM histidine), T0, 25 C table.
Text: as §1, §2

Test [6] deals with T2, recombinant human EGFR/ErbB1/HER1 with …. The experiment in a line: competitive TR-FRET (Eu-amivantamab/Cy5-EGFR), EC50 ratio vs Reference Material; Ex. 2 Formulation 1 (10 mM histidine), T0, 25 C table.
Text: as §3
as §2, with “EGFR” for “c-MET”, “EGFR,” for “cMet,”, “human EGFR/ErbB1/HER1” for “cMet/HGFR”, “C-terminal His tag” for “c-terminal His-tag”, “EGFR.” for “c-MET.”, “Eu-labeled” for “Eu labeled”

Test [7] has the same target. The experiment in a line: competitive TR-FRET (Eu-amivantamab/Cy5-EGFR), EC50 ratio vs Reference Material; Ex. 3 acetate formulation with PS80, T0.
Text: as §3
as §2, with “EGFR” for “c-MET”, “EGFR,” for “cMet,”, “human EGFR/ErbB1/HER1” for “cMet/HGFR”, “C-terminal His tag” for “c-terminal His-tag”, “EGFR.” for “c-MET.”, “Eu-labeled” for “Eu labeled”

Test [8] has the same target. The experiment in a line: competitive TR-FRET (Eu-amivantamab/Cy5-EGFR), EC50 ratio vs Reference Material; Ex. 12 drug product with rHuPH20, 1 month at 40 C.
Text: as §3
as §2, with “EGFR” for “c-MET”, “EGFR,” for “cMet,”, “human EGFR/ErbB1/HER1” for “cMet/HGFR”, “C-terminal His tag” for “c-terminal His-tag”, “EGFR.” for “c-MET.”, “Eu-labeled” for “Eu labeled”

B1: amivantamab (bispecific antibody, human IgG1, kappa)
heavy 1: not shown
light 1: not shown
heavy 2: not shown
light 2: DIQMTQSPSSVSASVGDRVTITCRASQGISNWLAWFQHKPGKAPKLLIYAASSLLSGVPSRFSGSGSGTDFTLTISSLQPEDFATYYCQQANSFPITFGQGTRLEIKRTVAAPSVFIFPPSDEQLKSGTASVVCLLNNFYPREAKVQWKVDNALQSGNSQESVTEQDSKDSTYSLSSTLTLSKADYEKHKVYACEVTHQGLSSPVTKSFNRGEC
notes: The samples tested were high concentration (160 mg/mL) formulations, fresh or stored or stressed; also called JNJ-61186372; bispecific EGFR-cMet antibody
As for B1, in test [1], the “cMET Binding activity relative to Reference Material (%)” value was 91%. In addition, the “EGFR Binding activity relative to Reference Material (%)” value came to 87% in test [2] and 41% in test [8]. For the same molecule, the figures for the “cMET Binding % activity relative to RM” value in test [3] and in test [5] were 102% and 87%, respectively. The “EGFR Binding % activity relative to RM” value in test [4] is 87%; in test [6], 103%; in test [7] it was 103%.
